Data set [1] deals with the molecule itself. Kind of data set: mbSUS split-ubiquitin interaction assay, full length AFL1 with itself. As for the experimental part:
Mating-based Split-Ubiquitin System (mbSUS) assays were performed as previously described using vectors and yeast strains obtained from the Arabidopsis Biological Resource Center. Full length AFL1 as well as putative interactors were expressed in yeast strains THY.AP4 and THY.AP5, respectively, by recombinational in vivo cloning and plated on SC-Leu-Met or SC-Trp-Ura-Met (SC/+AHL) plates for selection. The interaction was tested by X-gal agarose overlay assay.

Another data set deals with T1, ER-body protein NAI2 (Arabidopsis, UniProt Q9LSB4 25-772, limits assumed).
T1 construct: also called AT3G15950
T1 sequence: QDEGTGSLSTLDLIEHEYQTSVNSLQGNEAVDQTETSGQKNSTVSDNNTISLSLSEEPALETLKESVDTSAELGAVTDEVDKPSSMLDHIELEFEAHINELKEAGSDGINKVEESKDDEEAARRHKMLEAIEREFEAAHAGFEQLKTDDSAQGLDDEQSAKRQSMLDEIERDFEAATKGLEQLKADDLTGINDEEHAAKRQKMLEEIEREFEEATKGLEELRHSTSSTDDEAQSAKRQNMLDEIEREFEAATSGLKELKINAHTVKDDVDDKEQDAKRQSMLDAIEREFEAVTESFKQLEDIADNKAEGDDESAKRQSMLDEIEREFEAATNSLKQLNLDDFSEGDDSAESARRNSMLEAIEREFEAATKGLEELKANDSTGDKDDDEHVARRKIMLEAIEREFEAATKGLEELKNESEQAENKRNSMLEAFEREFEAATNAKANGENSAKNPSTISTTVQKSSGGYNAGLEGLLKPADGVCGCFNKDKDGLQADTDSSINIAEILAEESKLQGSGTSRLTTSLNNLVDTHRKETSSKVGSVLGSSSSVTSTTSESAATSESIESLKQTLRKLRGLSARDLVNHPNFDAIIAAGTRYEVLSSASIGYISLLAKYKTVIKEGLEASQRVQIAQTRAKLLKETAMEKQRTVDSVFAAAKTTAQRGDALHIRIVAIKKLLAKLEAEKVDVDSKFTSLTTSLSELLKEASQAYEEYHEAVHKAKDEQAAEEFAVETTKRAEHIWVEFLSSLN
The data set can be described thus: yeast two hybrid library screen (AFL1 N-terminus). As for the experimental part:
A yeast two hybrid library was prepared using mRNA from seedlings exposed to −1.2 MPa low water potential stress for 96 h. The library was prepared using the Cloneminer II cDNA construction (Invitrogen) according to the manufacturer's instructions. Yeast two hybrid screening was performed using the ProQuest Two-hybrid system (Invitrogen) following manufacturer's instructions with an N-terminal fragment of AFL1 (amino acids 1 to 208) as bait. The bait fragment was cloned into destination vector pDEST23 and co-transformed into MaV203 along with clones from the cDNA library using LiAc X transformation. […] Colonies that grew on the selective media were re-streaked and subjected to β-galactosidase filter assay to confirm interaction. Out of approximately 8×10⁵ colony forming units screened, clones of PDI5, NAI2, and TSA1 were detected repeatedly. Most of these clones were C-terminal truncations. Full length cDNA clones of PDI5, NAI2 and TSA1 were obtained (using the cloning procedures described above) and confirmed to interact with the AFL1 bait construct in β-galactosidase filter assays.

B1: At14a-like1 (AFL1), full length (other)
chain: MALSKDLMLKCSEDMMSAYKSACEEHPKLKSFDASLQQRTNKMIDSLTVEDKNGSSSPHDAHMELSKHLVEVTQGVADFITEIEDDVWDNQALKYLVLAYFENTKKTLEIFKTIENCVENAEMGQLLIREALAEFEKESAEKDVGGKKKKYEKTLEDLKSFKEMGDPFDGKVLTTQFERIKKQQESLLEEVSETRKKIQDEISNLEKKTLITNVVFGAAFAIVAVASIALIATGVGAAAGFGALAAPLLAAGWAGVYTTLDKKKDALNKQLEGLKKVEEIEESVEKGIKTNEEATETVSILVDGLEDRIKNMLKLVDNAIDHEDNEAATRIVLTQISKKVEKLTKKITEVGESVEDHSKLIAKARLQVLQKINR
notes: Full-length AFL1; In mbSUS it was a split-ubiquitin fusion expressed in yeast; In BiFC it was a fusion to a YFP half (YFPN or YFPC, the latter MYC-tagged); This entry also stands for native AFL1 in seedling extracts (47 kDa band; co-purified with YFP-AFL1); also called AT3G28270; Full Length AFL1
Consider B1, for which the binding result in data set [1] was “binds”.

B2: AFL1 N-terminal fragment (amino acids 1 to 208) (other)
chain: MALSKDLMLKCSEDMMSAYKSACEEHPKLKSFDASLQQRTNKMIDSLTVEDKNGSSSPHDAHMELSKHLVEVTQGVADFITEIEDDVWDNQALKYLVLAYFENTKKTLEIFKTIENCVENAEMGQLLIREALAEFEKESAEKDVGGKKKKYEKTLEDLKSFKEMGDPFDGKVLTTQFERIKKQQESLLEEVSETRKKIQDEISNLEKK
notes: Yeast two hybrid bait in a ProQuest destination vector (printed as pDEST23); also called AFL1 N-terminus; N-terminal domain of AFL1
Take B2: the binding result with ER-body protein NAI2 is “binds”.
